{"source": "patent US20180140742A1", "key": {"[1]": {"molecular_target": "oriented collagen tube (Porcine Skin Collagen type I) (porcine)", "assay": "depletion assay: tube immersed in fusion protein solution in phosphate buffer; bound = added minus amount left in the supernatant"}, "[2]": {"molecular_target": "oriented collagen tube (Porcine Skin Collagen type I) (porcine)", "assay": "depletion assay: tube immersed in fusion protein solution in phosphate buffer; bound = added minus amount left in the supernatant; told of the other added amounts"}}, "data": [{"substance": "bFGF-PKD-CBD fusion protein", "values": [{"measurement": "binding amount (when 10 µg added)", "setting": "[1]", "value": 9, "unit": "µg"}, {"measurement": "protein binding rate", "setting": "[2]", "value": 90, "unit": "%"}]}]}
